Data reported in the supplement of paper PMC10899765.

How the values were obtained:
Conditions in all cases: 20 nM; 72 h
MCF10A [1] = assay: percent viability (nuclei count relative to siNT); higher = more viable cells
Method: (§1)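 After 72 h, cells were fixed and stained with Hoechst and anti-fibrillarin, and nucleoli per nucleus were counted with CellProfiler. Values are plate-adjusted percent effect for the one-nucleolus and 5+ nucleoli phenotypes, normalised to siNT (0%) and to the positive controls siNOL11 or siKIF11 (100%), as the mean of biological triplicates. Percent viability is the nuclei count relative to siNT.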

MCF10A [2] = assay: 5+ nucleoli phenotype percent effect (relative to siNT 0% and siKIF11 100%); higher = more cells with five or more nucleoli
Method: as §1

MCF10A [3] = assay: one-nucleolus phenotype percent effect (relative to siNT 0% and siNOL11 100%); higher = more cells with one nucleolus (ribosome biogenesis inhibition)
Method: as §1

| Sequence | percent viability (MCF10A [1]) [%] | 5+ nucleoli phenotype percent effect (MCF10A [2]) [%] | one-nucleolus phenotype percent effect (MCF10A [3]) [%] |
| --- | --- | --- | --- |
| CCUCACCACCCCUUCUGCCUGCA [hsa-miR-6511b-3p] | 69.7 | 22.9 | -22.7 |
| AACAUUCAUUGUUGUCGGUGGGU [hsa-miR-181d] | 91.1 | 12.5 | -6.07 |
| AGGGGACCAAAGAGAUAUAUAG [hsa-miR-3144-5p] | 38.1 | 33.4 | -9.41 |
| GCUCUGACGAGGUUGCACUACU [hsa-miR-301b-5p] | 60.8 | 15.2 | -22.6 |
| GACACAUGACCAUAAAUGCUAA [hsa-miR-4643] | 109 | 36.8 | -11.7 |
| AGCAGAAGCAGGGAGGUUCUCCCA [hsa-miR-298] | 25.9 | -22.8 | 17.9 |
| UAGGUAGUUUCAUGUUGUUGGG [hsa-miR-196a-5p] | 33.5 | 23.8 | -16.9 |
| CACACAUAGCAGGUGUAUAUA [hsa-miR-4789-3p] | 67.3 | 39.4 | -24.6 |
| AGCAAAAUAAGCAAAUGGAAAA [hsa-miR-1468-3p] | 128 | 29.6 | -19.1 |
| AGGGGGCGGGCUCCGGCG [hsa-miR-4488] | 70.5 | 8.35 | -5.44 |
| UGGUCUAGGAUUGUUGGAGGAG [hsa-miR-601] | 58.5 | -3.95 | 22.9 |
| CUCUGGGAAAUGGGACAG [hsa-miR-4314] | 25.6 | -5.34 | 11.2 |
| UAGGCAGUGUAUUGCUAGCGGCUGU [hsa-miR-449c-5p] | 17.7 | -19.5 | 17.4 |
| UAAAGUAAAUAUGCACCAAAA [hsa-miR-559] | 153 | 24 | -21.4 |
| UUCCCUUUGUCAUCCUUCGCCU [hsa-miR-211-5p] | 75.8 | 49.7 | -7.23 |
| AGCUUCUUUACAGUGCUGCCUUG [hsa-miR-103a-2-5p] | 36.7 | -36.6 | 7.49 |
| UCCUAAAUCUGAAAGUCCAAAA [hsa-miR-5009-3p] | 117 | 46.2 | -25.9 |
| GCAGGAACUUGUGAGUCUCCU [hsa-miR-873-5p] | 122 | 31.2 | -17.4 |
| CCCCUGGGCCGGCCUUGG [hsa-miR-4292] | 26.6 | 31.4 | 4.18 |
| UGAAGUACCAGCUACUCGAGAG [hsa-miR-5585-5p] | 36.7 | -8.83 | -3.33 |

| Sequence | percent viability (MCF10A [1]) [%] | 5+ nucleoli phenotype percent effect (MCF10A [2]) [%] | one-nucleolus phenotype percent effect (MCF10A [3]) [%] |
| --- | --- | --- | --- |
| CACAUAUGAAGUGAGCCAGCAC [hsa-miR-5580-3p] | 56.3 | -31.6 | -6.62 |
| GUGGCUCUGUAGUAAGAUGGA [hsa-miR-8057] | 44.7 | 6.17 | 6.14 |
| UCUCACUGUAGCCUCGAACCCC [hsa-miR-1304-3p] | 44.7 | 22.9 | -27.3 |
| GAGGCAGAAGCAGGAUGACA [hsa-miR-1910-3p] | 38.6 | -17.5 | 25.3 |
| UGAGGCCCUUGGGGCACAGUGG [hsa-miR-5008-5p] | 22.9 | -8.69 | 6.37 |
| UAGCCCCCAGGCUUCACUUGGCG [hsa-miR-3943] | 19.1 | -18.2 | 8.41 |
| UGGUCUGUUCAUUCUCUCUUUUUGGCC [hsa-miR-7107-3p] | 15 | 0.728 | 13.2 |
| UAUUCAUUUAUCCCCAGCCUACA [hsa-miR-664a-3p] | 121 | 26 | -21 |
| UGUCACUCGGCUCGGCCCACUAC [hsa-miR-668] | 60.6 | -8.26 | -1.34 |
| UUCUCUUUCUUUAGCCUUGUGU [hsa-miR-4753-3p] | 22.1 | -14.1 | 27.3 |
| CCAAUAUUACUGUGCUGCUUUA [hsa-miR-16-2-3p] | 121 | 40.6 | -17.8 |
| UAGGAUGGGGGUGAGAGGUG [hsa-miR-2392] | 50.4 | 17.7 | -3.85 |
| CAACCCUAGGAGAGGGUGCCAUUCA [hsa-miR-652-5p] | 46.2 | -17.7 | 12.5 |
| AAGACUGAGAGGAGGGA [hsa-miR-4499] | 123 | 3.14 | -14 |
| GGCUGGAGCGAGUGCAGUGGUG [hsa-miR-3135b] | 43.2 | -9.26 | 9.78 |
| UGUUUCGGGGCUCAUGGCCUGUG [hsa-miR-5705] | 136 | 33.2 | -18.8 |
| UUUCCCUUCAGAGCCUGGCUUU [hsa-miR-4755-5p] | 52.8 | 1.53 | 3.84 |
| UGGAGAGAAAGGCAGUUCCUGA [hsa-miR-185-5p] | 21.7 | -10.1 | 5.33 |
| CCAGAGAUGGUUGCCUUCCUAU [hsa-miR-4756-3p] | 56.8 | 4.75 | -3.67 |
| UAUGUAGUAGUCAAAGGCAUUU [hsa-miR-7852-3p] | 81.4 | -8.45 | -3.81 |

| Sequence | percent viability (MCF10A [1]) [%] | 5+ nucleoli phenotype percent effect (MCF10A [2]) [%] | one-nucleolus phenotype percent effect (MCF10A [3]) [%] |
| --- | --- | --- | --- |
| UGGUCAGAGGCAGCAGGAAAUGA [hsa-miR-6801-5p] | 54.5 | 27.3 | -5.6 |
| GGGGAACUGUAGAUGAAAAGGC [hsa-miR-8059] | 101 | 34.6 | -28.4 |
| AUACAUGUCAGAUUGUAUGCC [hsa-miR-4666a-5p] | 52.7 | 3.52 | -5.95 |
| GGACCCACCCGGCCGGGAAUA [hsa-miR-1180-5p] | 75.2 | 38.4 | -33.8 |
| GGUGGGGCAAUGGGAUCAGGU [hsa-miR-3151] | 33.9 | 9.32 | -3.87 |
| AUCAUAGAGGAAAAUCCAUGUU [hsa-miR-376b-3p] | 144 | 52.2 | -20.4 |
| UCGAGGAGCUCACAGUCU [hsa-miR-151b] | 57.3 | 10.8 | 11.9 |
| AUCACACAAAGGCAACUUUUGU [hsa-miR-377-3p] | 129 | -2.87 | -9.96 |
| UUAGGGCCCUGGCUCCAUCUCC [hsa-miR-1296] | 39.5 | 13.2 | 8 |
| UUUCUAUGUUAGUUGGAAG [hsa-miR-7159-3p] | 26.4 | 0.357 | 5.4 |
| UAGGAUUACAAGUGUCGGCCAC [hsa-miR-3159] | 44.9 | -4.52 | -5 |
| UAAGUGCUUCCAUGUUUCAGUGG [hsa-miR-302c-3p] | 78 | 52.1 | -16.2 |
| AGACAUCAAGAUCAGUCCCAAA [hsa-miR-3913-3p] | 21.7 | 10.4 | 34.3 |
| AGCCUGGAAGCUGGAGCCUGCAGU [hsa-miR-1254] | 50.1 | -6.84 | 10.5 |
| UCACAGUGAACCGGUCUCUUU [hsa-miR-128] | 81.7 | -27.9 | 12.2 |
| ACGGAAUAUGUAUACGGAAUAUA [hsa-miR-3669] | 95.9 | 30.9 | -9.77 |
| AACAUUCAACCUGUCGGUGAGU [hsa-miR-181c-5p] | 79 | 3.6 | 6.56 |
| UAAAACUGCAGUUAUUUUUGC [hsa-miR-548ar-3p] | 122 | 38.3 | -24.2 |
| AAUUCCCUUGUAGAUAACCCGG [hsa-miR-3938] | 129 | 51.2 | -32 |
